To fix the notation:
B1: Pistol ribozyme (parent)
chain: GGGUCGUUGUUCCAUAAUCGCGUGGAUAUGGCACGCAAGUUUCUACCGGGCACCGUAAAUGUCCGACUGGAGCCGUUCGGGCGGCUAUAAACAGACCUCAGGCCCGAAGCGUGGCGGCACCUGCCGCCGGUGGUAAAAAAGAUCGGAAGAGCACACGUCU

The variants in the data set derive from B1. Put plainly: aptazyme ON/OFF ratio, guanine; higher = stronger switching; co-transcriptional cleavage with and without guanine.
In the case of U7C U8G G9A U10G U11C C12A, the “aptazyme ON/OFF ratio” value stood at 1.41. Consider U7C U8G G9A U10G C12A C13A, for which the “aptazyme ON/OFF ratio” value was determined as 1.12.

As to U7C U8G G9A U10G C12A C13U, the “aptazyme ON/OFF ratio” value is 1.36.

With U7C U8G G9A U10G C12A C13G, the “aptazyme ON/OFF ratio” value stood at 1.08.

For the variant U7C U8G G9A U10G U11G C12U C13A, the “aptazyme ON/OFF ratio” value came to 1.42. To U7C U8G G9A U10G U11G C12U C13G belongs 1.25. For U7C U8G G9A U10G U11G C12U C13U, the “aptazyme ON/OFF ratio” value was 1.22. Regarding U7C U8G G9A U10G C12A, the “aptazyme ON/OFF ratio” value turned out to be 1.37. To U7C U8G G9A U10G C12U belongs 1.37. To U7C U8G G9A U10G C12G belongs 1.34; to U7C U8G G9A U11A C12A C13U, 1.24; to U7C U8G G9A U11A C12A C13G, 1.15. As for U7C U8G G9A U11A C12A C13A, the “aptazyme ON/OFF ratio” value turned out to be 1.3. Consider U7C U8G G9C U10C U11C C12G C13G, for which the “aptazyme ON/OFF ratio” value was 1.08.

Turning to U7C U8G G9C U10C U11C C12G C13A, the “aptazyme ON/OFF ratio” value amounted to 1.19.

Take U7C U8G G9C U10C U11C C12G C13U: the “aptazyme ON/OFF ratio” value turned out to be 1.07. To U7C U8G G9A U10C U11G C12G belongs 1.22; to U7C U8G G9A U10C U11G C12A, 1.07. On to U7C U8G G9A U10C U11G C12U, for which the “aptazyme ON/OFF ratio” value is 1.29.

As for U7C U8G G9C U10C C12U C13G, the “aptazyme ON/OFF ratio” value stood at 1.08. As to U7C U8G G9C U10C C12U C13U, the “aptazyme ON/OFF ratio” value is 1.09.

Turning to U7C U8G G9C U10C C12U C13A, the “aptazyme ON/OFF ratio” value is 1.05. To U7C U8G G9A U10C U11G C12U C13A belongs 1.26; to U7C U8G G9A U10C U11G C12U C13U, 1.28.

In the case of U7C U8G G9A U10C U11G C12U C13G, the “aptazyme ON/OFF ratio” value came out at 1.14. On to U7C U8G G9C U10A C12A, for which the “aptazyme ON/OFF ratio” value worked out at 1.2. For U7C U8G G9C U10A C12U, the “aptazyme ON/OFF ratio” value amounted to 1.17. Regarding U7C U8G G9C U10A C12G, the “aptazyme ON/OFF ratio” value is 1.14. As for U7C U8G G9C U10C U11A C12U C13A, the “aptazyme ON/OFF ratio” value stood at 1.08. To U7C U8G G9C U10C U11A C12U C13U belongs 1.08; to U7C U8G G9C U10C U11A C12U C13G, 1.21. On to U7C U8G G9C U10A U11C C13G, for which the “aptazyme ON/OFF ratio” value was 1.04. Regarding U7C U8G G9C U10A U11C C13A, the “aptazyme ON/OFF ratio” value is 1.07. Consider U7C U8G G9C U10A U11C C13U, for which the “aptazyme ON/OFF ratio” value was found to be 1.01. Consider U7C U8G G9A U11A C12U, for which the “aptazyme ON/OFF ratio” value stood at 1.26. U7C U8G G9A U11A C12G: the “aptazyme ON/OFF ratio” value is 1.11. For U7C U8G G9A U11A C12A, the “aptazyme ON/OFF ratio” value was determined as 1.29. To U7C U8G G9A U10G U11A C12A C13A belongs 1.18.

Consider U7C U8G G9A U10G U11A C12A C13G, for which the “aptazyme ON/OFF ratio” value is 1.3. Consider U7C U8G G9A U10G U11A C12A C13U, for which the “aptazyme ON/OFF ratio” value was found to be 1.22. For the variant U7C U8G G9C U10C U11C C12A C13G, the “aptazyme ON/OFF ratio” value was determined as 1.04. As to U7C U8G G9C U10C U11C C12A C13A, the “aptazyme ON/OFF ratio” value turned out to be 1.03. In the case of U7C U8G G9C U10C U11C C12A C13U, the “aptazyme ON/OFF ratio” value was 1.02. In the case of U7C U8G G9A U10C U11G C12G C13A, the “aptazyme ON/OFF ratio” value was found to be 1.23. Turning to U7C U8G G9A U10C U11G C12G C13U, the “aptazyme ON/OFF ratio” value is 1.09.

U7C U8G G9A U10C U11G C12G C13G: the “aptazyme ON/OFF ratio” value is 1.27. To U7C U8G G9A U11C C12G C13A belongs 1.05; to U7C U8G G9A U11C C12G C13U, 1.1; to U7C U8G G9A U11C C12G C13G, 1.17. To U7C U8G G9C U10G C12A C13U belongs 1.26; to U7C U8G G9C U10G C12A C13G, 1.09. U7C U8G G9C U10G C12A C13A: the “aptazyme ON/OFF ratio” value worked out at 1.16.

As for U7C U8G G9A U10G C13U, the “aptazyme ON/OFF ratio” value turned out to be 1.54. Take U7C U8G G9A U10G C13G: the “aptazyme ON/OFF ratio” value turned out to be 1.16. To U7C U8G G9A U10G C13A belongs 1.23; to U7C U8G G9C U10C U11G C13A, 1.11.

In the case of U7C U8G G9C U10C U11G C13U, the “aptazyme ON/OFF ratio” value amounted to 1.19.

Regarding U7C U8G G9C U10C U11G C13G, the “aptazyme ON/OFF ratio” value is 1.11. In the case of U7C U8G G9C U10G U11A C12U C13G, the “aptazyme ON/OFF ratio” value amounted to 1.27. Consider U7C U8G G9C U10G U11A C12U C13A, for which the “aptazyme ON/OFF ratio” value amounted to 1.38. As for U7C U8G G9C U10G U11A C12U C13U, the “aptazyme ON/OFF ratio” value was determined as 1.27. Consider U7C U8G G9A U10G U11G C12G C13G, for which the “aptazyme ON/OFF ratio” value turned out to be 1.03. For the variant U7C U8G G9A U10G U11G C12G C13U, the “aptazyme ON/OFF ratio” value is 1.24. To U7C U8G G9A U10G U11G C12G C13A belongs 1.42; to U7C U8G G9C U10A U11G, 1.18. To U7C U8G G9C U10A U11C belongs 1.03; to U7C U8G G9C U10A U11A, 1.3; to U7C U8G G9C U10A U11A C13U, 1.2. For U7C U8G G9C U10A U11A C13G, the “aptazyme ON/OFF ratio” value turned out to be 1.08. To U7C U8G G9C U10A U11A C13A belongs 1.15. As to U7C U8G G9C U10A U11A C12A C13G, the “aptazyme ON/OFF ratio” value came out at 1.15.

Regarding U7C U8G G9C U10A U11A C12A C13U, the “aptazyme ON/OFF ratio” value was determined as 1.26.

On to U7C U8G G9C U10A U11A C12A C13A, for which the “aptazyme ON/OFF ratio” value came to 1.13. With U7C U8G G9A U10G U11C C13G, the “aptazyme ON/OFF ratio” value came out at 1.04.

Turning to U7C U8G G9A U10G U11C C13U, the “aptazyme ON/OFF ratio” value was 1.03. In the case of U7C U8G G9A U10G U11C C13A, the “aptazyme ON/OFF ratio” value turned out to be 1.11. U7C U8G G9C U10C U11A C12A C13U: the “aptazyme ON/OFF ratio” value was determined as 1.09. As for U7C U8G G9C U10C U11A C12A C13G, the “aptazyme ON/OFF ratio” value amounted to 1.06. In the case of U7C U8G G9C U10C U11A C12A C13A, the “aptazyme ON/OFF ratio” value amounted to 1.08. For U7C U8G G9C, the “aptazyme ON/OFF ratio” value came out at 1.08. Regarding U7C U8G G9A U10G U11G C12G, the “aptazyme ON/OFF ratio” value turned out to be 1.27. Regarding U7C U8G G9A U10G U11G C12A, the “aptazyme ON/OFF ratio” value came to 1.33. U7C U8G G9A U10G U11G C12U: the “aptazyme ON/OFF ratio” value stood at 1.36. Take U7C U8G G9C U10A U11C C12G C13A: the “aptazyme ON/OFF ratio” value is 1.24.

For the origin of these results see the RNAGym collection of RNA variant scans (doi:10.1021/acssynbio.7b00057).
